The source of these data is publication PMC8230831.

The test concerns the target CXC chemokine receptor 4 (CXCR4) (human (endogenous in HeLa)) (UniProt P61073). As to conditions: scale: apoptotic figures per 400 x magnification tumor field.
Chain of UniProt P61073 (P61073 whole entry): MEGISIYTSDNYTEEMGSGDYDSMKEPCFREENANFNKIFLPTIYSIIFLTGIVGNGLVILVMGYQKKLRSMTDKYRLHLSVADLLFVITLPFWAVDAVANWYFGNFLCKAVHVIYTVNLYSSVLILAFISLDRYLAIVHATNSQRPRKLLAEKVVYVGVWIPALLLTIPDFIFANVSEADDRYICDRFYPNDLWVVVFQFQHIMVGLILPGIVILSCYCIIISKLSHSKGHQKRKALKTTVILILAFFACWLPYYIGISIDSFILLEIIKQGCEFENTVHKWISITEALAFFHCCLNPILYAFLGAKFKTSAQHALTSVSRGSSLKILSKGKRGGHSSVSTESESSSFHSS

With “biparatopic EPIX4-(RK)-GFP-H6/T22-GFP-H6 NPs (complex)”, the apoptotic figures in CXCR4+ M5 colorectal tumors of mice, 0.5 to 24 h after a single 200 µg i.v. dose (histology); peak at 24 h was found to be 30.
